Laboratory results as given in US20250313605A1.
*1 amine or outer side, *2 acyl side, *3 side chain or, on linkers, in order; H or OH if unused. Where no end group is shown, it is not given here. Side-chain parts run from the residue outwards. [ ]: non-standard residue; d: D form. The star is where a group is joined. C20 diacid = O=C(O)CCCCCCCCCCCCCCCCCCC(=O)*; γGlu = O=C(O)[C@H](CCC(=O)[*:2])N[*:1]; αMeL = CC(C)C[C@](C)(N)C(=O)O; αMeK = C[C@](N)(CCCCN)C(=O)O; AEEA = NCCOCCOCC(=O)O; Aib = CC(C)(N)C(=O)O

B1: Example 20 (peptide)
peptide: Y[Aib]QGTFTSDYSILLDKK([AEEA-γGlu-C20 diacid])AQ[Aib]AFIEYLLE[Aib]GPSSGAPPPS-NH2
modifications: N-terminus assumed
SMILES: CC[C@H](C)[C@H](NC(=O)[C@H](Cc1ccccc1)NC(=O)[C@H](C)NC(=O)C(C)(C)NC(=O)[C@H](CCC(N)=O)NC(=O)[C@H](C)NC(=O)[C@H](CCCCNC(=O)COCCOCCNC(=O)CC[C@H](NC(=O)CCCCCCCCCCCCCCCCCCC(=O)O)C(=O)O)NC(=O)[C@H](CCCCN)NC(=O)[C@H](CC(=O)O)NC(=O)[C@H](CC(C)C)NC(=O)[C@H](CC(C)C)NC(=O)[C@@H](NC(=O)[C@H](CO)NC(=O)[C@H](Cc1ccc(O)cc1)NC(=O)[C@H](CC(=O)O)NC(=O)[C@H](CO)NC(=O)[C@@H](NC(=O)[C@H](Cc1ccccc1)NC(=O)[C@@H](NC(=O)CNC(=O)[C@H](CCC(N)=O)NC(=O)C(C)(C)NC(=O)[C@@H](N)Cc1ccc(O)cc1)[C@@H](C)O)[C@@H](C)O)[C@@H](C)CC)C(=O)N[C@@H](CCC(=O)O)C(=O)N[C@@H](Cc1ccc(O)cc1)C(=O)N[C@@H](CC(C)C)C(=O)N[C@@H](CC(C)C)C(=O)N[C@@H](CCC(=O)O)C(=O)NC(C)(C)C(=O)NCC(=O)N1CCC[C@H]1C(=O)N[C@@H](CO)C(=O)N[C@@H](CO)C(=O)NCC(=O)N[C@@H](C)C(=O)N1CCC[C@H]1C(=O)N1CCC[C@H]1C(=O)N1CCC[C@H]1C(=O)N[C@@H](CO)C(N)=O
B2: Example 19 (peptide)
peptide: Y[Aib]QGTFTSDYSILLDKK([AEEA-γGlu-γGlu-C20 diacid])AQ[Aib]AFIEYLLE[Aib]GPSSGAPPPS-NH2
modifications: N-terminus assumed
SMILES: CC[C@H](C)[C@H](NC(=O)[C@H](Cc1ccccc1)NC(=O)[C@H](C)NC(=O)C(C)(C)NC(=O)[C@H](CCC(N)=O)NC(=O)[C@H](C)NC(=O)[C@H](CCCCNC(=O)COCCOCCNC(=O)CC[C@H](NC(=O)CC[C@H](NC(=O)CCCCCCCCCCCCCCCCCCC(=O)O)C(=O)O)C(=O)O)NC(=O)[C@H](CCCCN)NC(=O)[C@H](CC(=O)O)NC(=O)[C@H](CC(C)C)NC(=O)[C@H](CC(C)C)NC(=O)[C@@H](NC(=O)[C@H](CO)NC(=O)[C@H](Cc1ccc(O)cc1)NC(=O)[C@H](CC(=O)O)NC(=O)[C@H](CO)NC(=O)[C@@H](NC(=O)[C@H](Cc1ccccc1)NC(=O)[C@@H](NC(=O)CNC(=O)[C@H](CCC(N)=O)NC(=O)C(C)(C)NC(=O)[C@@H](N)Cc1ccc(O)cc1)[C@@H](C)O)[C@@H](C)O)[C@@H](C)CC)C(=O)N[C@@H](CCC(=O)O)C(=O)N[C@@H](Cc1ccc(O)cc1)C(=O)N[C@@H](CC(C)C)C(=O)N[C@@H](CC(C)C)C(=O)N[C@@H](CCC(=O)O)C(=O)NC(C)(C)C(=O)NCC(=O)N1CCC[C@H]1C(=O)N[C@@H](CO)C(=O)N[C@@H](CO)C(=O)NCC(=O)N[C@@H](C)C(=O)N1CCC[C@H]1C(=O)N1CCC[C@H]1C(=O)N1CCC[C@H]1C(=O)N[C@@H](CO)C(N)=O

Target: human glucagon receptor (human), P47871
Assay: cell-based or functional assay

Chain of human glucagon receptor (human), P47871 (P47871 26-477): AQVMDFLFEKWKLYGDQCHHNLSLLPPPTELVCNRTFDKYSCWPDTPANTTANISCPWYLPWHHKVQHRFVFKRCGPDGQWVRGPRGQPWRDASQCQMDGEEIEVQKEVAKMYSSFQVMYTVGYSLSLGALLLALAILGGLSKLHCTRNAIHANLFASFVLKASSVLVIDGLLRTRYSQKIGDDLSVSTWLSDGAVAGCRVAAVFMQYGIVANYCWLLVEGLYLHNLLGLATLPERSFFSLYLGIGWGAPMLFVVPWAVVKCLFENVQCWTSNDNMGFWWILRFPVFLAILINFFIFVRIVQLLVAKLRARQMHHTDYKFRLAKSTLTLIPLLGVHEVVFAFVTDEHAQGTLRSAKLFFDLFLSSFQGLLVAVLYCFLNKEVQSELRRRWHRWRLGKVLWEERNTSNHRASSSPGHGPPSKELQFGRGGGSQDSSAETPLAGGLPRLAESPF

Binder | cAMP EC50 (0.1% casein) | cAMP EC50 (FBS and BSA present)
B1 | 0.0641 nM | 3.97 nM
B2 | 0.0874 nM | 8.45 nM
Y[Aib]QGTFTSDYSI[αMeL]LDKK([AEEA-AEEA-γGlu-C20 diacid])AQ[αMeK]AFIEYLLEGGPSSGAPPPS-NH2 [Example 3] | 0.152 nM | 8.03 nM

Target: T1, human GIP receptor (human), P48546
T1 chain: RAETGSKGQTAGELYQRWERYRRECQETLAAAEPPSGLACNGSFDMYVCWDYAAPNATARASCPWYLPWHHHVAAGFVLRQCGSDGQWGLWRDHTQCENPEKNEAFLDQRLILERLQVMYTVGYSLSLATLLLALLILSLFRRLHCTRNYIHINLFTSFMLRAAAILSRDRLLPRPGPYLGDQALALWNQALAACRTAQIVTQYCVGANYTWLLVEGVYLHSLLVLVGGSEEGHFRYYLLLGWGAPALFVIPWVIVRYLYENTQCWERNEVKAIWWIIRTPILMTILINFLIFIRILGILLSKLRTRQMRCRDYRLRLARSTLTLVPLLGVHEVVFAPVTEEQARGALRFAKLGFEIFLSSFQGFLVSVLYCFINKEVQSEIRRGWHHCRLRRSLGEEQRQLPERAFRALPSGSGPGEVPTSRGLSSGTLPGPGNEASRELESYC
Assay: cell-based or functional assay

Binder | cAMP EC50 (0.1% casein) | cAMP EC50 (FBS and BSA present)
B1 | 0.0572 nM | 3.7 nM
B2 | 0.0455 nM | 3.13 nM
Y[Aib]QGTFTSDYSI[αMeL]LDKK([AEEA-AEEA-γGlu-C20 diacid])AQ[αMeK]AFIEYLLEGGPSSGAPPPS-NH2 [Example 3] | 0.0376 nM | 1.91 nM

Target: T2, human GLP-1 receptor (human), P43220
T2 chain: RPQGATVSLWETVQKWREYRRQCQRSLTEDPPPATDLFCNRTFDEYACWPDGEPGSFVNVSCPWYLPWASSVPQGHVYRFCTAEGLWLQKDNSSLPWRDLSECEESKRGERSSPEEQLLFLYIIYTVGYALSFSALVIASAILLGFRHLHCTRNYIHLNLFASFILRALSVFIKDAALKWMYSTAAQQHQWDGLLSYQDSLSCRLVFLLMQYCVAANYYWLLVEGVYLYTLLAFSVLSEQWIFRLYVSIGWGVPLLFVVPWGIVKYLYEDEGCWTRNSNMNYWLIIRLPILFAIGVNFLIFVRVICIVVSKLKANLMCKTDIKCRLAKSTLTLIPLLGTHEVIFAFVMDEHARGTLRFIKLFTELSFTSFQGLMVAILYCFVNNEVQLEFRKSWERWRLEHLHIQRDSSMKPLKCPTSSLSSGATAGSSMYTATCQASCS
Assay: cell-based or functional assay

Binder | cAMP EC50 (0.1% casein) | cAMP EC50 (FBS and BSA present)
B1 | 0.149 nM | 20.6 nM
B2 | 0.143 nM | 24.4 nM
Y[Aib]QGTFTSDYSI[αMeL]LDKK([AEEA-AEEA-γGlu-C20 diacid])AQ[αMeK]AFIEYLLEGGPSSGAPPPS-NH2 [Example 3] | 0.107 nM | –

Target: human glucagon receptor (human), P47871
Assay: radioligand competition SPA, HEK293 membranes

Binder | Ki
B1 | 3.76 nM
B2 | 5.2 nM
Y[Aib]QGTFTSDYSI[αMeL]LDKK([AEEA-AEEA-γGlu-C20 diacid])AQ[αMeK]AFIEYLLEGGPSSGAPPPS-NH2 [Example 3] | 12 nM

Target: T1, human GIP receptor (human), P48546
Assay: radioligand competition SPA, HEK293 membranes

Binder | Ki
B1 | 0.109 nM
B2 | 0.0789 nM
Y[Aib]QGTFTSDYSI[αMeL]LDKK([AEEA-AEEA-γGlu-C20 diacid])AQ[αMeK]AFIEYLLEGGPSSGAPPPS-NH2 [Example 3] | 0.0446 nM

Target: T2, human GLP-1 receptor (human), P43220
Assay: radioligand competition SPA, HEK293 membranes

Binder | Ki
B1 | 9.23 nM
B2 | 12 nM
Y[Aib]QGTFTSDYSI[αMeL]LDKK([AEEA-AEEA-γGlu-C20 diacid])AQ[αMeK]AFIEYLLEGGPSSGAPPPS-NH2 [Example 3] | 6.06 nM
